Source: article PMC4895024

Tests used:
[1] = molecular target: integrin αvβ3 on HUVEC cells, P06756;P05106; test: cell attachment assay (cells on protein-coated plate)
[2] = molecular target: integrin αIIbβ3 exogenously expressed on CHO and COS-7 cells, P08514;P05106; test: as above; details: read off a plot
[3] = molecular target: integrin αvβ3 exogenously expressed on CHO and COS-7 cells, P06756;P05106; test: as above; details: read off a plot
[4] = molecular target: ProAgio (D1-CD2 variant 3) (UniProt P06729); test: as above; details: CHO cells expressing αvβ3 wild type or β3-KKQ; parent: est. 190; read off a plot; scale: cells attached/field
[5] = molecular target: ProAgio (D1-CD2 variant 3) (not stated (human and rat D1-CD2 are named)) (UniProt P06729); test: cell attachment assay; culture plates coated with ProAgio; cells cultured 35 min, washed three times, attached cells counted per view field; some runs with 5 μM Cilengitide or 40 μg/ml antibody LM609
Chain of ProAgio (D1-CD2 variant 3) (not stated (human and rat D1-CD2 are named)) (P06729 25-206, change not shown): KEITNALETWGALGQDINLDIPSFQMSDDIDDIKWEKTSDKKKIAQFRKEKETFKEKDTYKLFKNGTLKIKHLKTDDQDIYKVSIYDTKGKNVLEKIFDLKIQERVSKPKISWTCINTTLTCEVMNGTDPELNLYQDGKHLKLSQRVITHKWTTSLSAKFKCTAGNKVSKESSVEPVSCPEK

D1-CD2 D99N; I102V; Q103I; E104I; E83T; T9V; W10Q; G11M; A12K
response (cells attached/field) ([1]; 40 μg ml−1 antibody LM609 (bar is labelled 'Cilengitide' in the image), read off a plot): 280 | response (cells attached/field) ([1]; BSA as control, read off a plot): 310 | response (cells attached/field) ([1]; IgG as control, read off a plot): 340 | response (cells attached/field) ([1]; in the presence of 5 μM of Cilengitide, read off a plot): 230 | response (cells attached/field) ([1]; parent: est. 45, read off a plot): 290 | response (cells attached/field) ([2]; CHO cells expressing αIIbβ3): 50 | response (cells attached/field) ([2]; COS-7 cells expressing αIIbβ3): 50 | response (cells attached/field) ([3]; CHO cells expressing αvβ3 (CHOαVβ3), parent: est. 100): 350 | response (cells attached/field) ([3]; CHO cells expressing αvβ3): 280 | response (cells attached/field) ([3]; COS-7 cells expressing αvβ3 (COS7αVβ3), parent: est. 90): 310 | response (cells attached/field) ([3]; COS-7 cells expressing αvβ3): 350

integrin αvβ3 exogenously expressed on CHO and COS-7 cells (from UniProt P06756;P05106) β3-KKQ
response [4]: 44

integrin αvβ5 expressed on COS-7 cells (from UniProt P06756 31-1048; P18084 24-799) (receptor)
fold less attachment than αvβ3-expressing cells [5]: > 3 fold
